According to the supplement of paper PMC9170038:

Test system: MS2 coat protein
Assay: apparent KD of MS2 coat protein; designed switch direction (-1 OFF switch, 1 ON switch): -1; higher = weaker reporter binding
Outline: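 The buffer was Tris-HCl pH 7.5 with KCl, MgCl2, BSA, DTT, tRNA and Tween-20. In it, SNAP-549-labelled MS2 coat protein was titrated in doubling steps from 0.7 or 1.5 nM to 3 µM over chip-bound RNA switches transcribed by stalled E. coli RNA polymerase on Illumina chips. Apparent KD is the per-design median over clusters of curve fits to normalised fluorescence.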

[1] = Eterna round: R95, input ligand: microRNA oligo, concentration not stated
[2] = input ligand: microRNA oligo, concentration not stated
[3] = Eterna round: R95, input ligand: FMN 200 uM
[4] = Eterna round: R95, input ligand: none

Sequence	apparent KD of MS2 coat protein [1]	apparent KD of MS2 coat protein (input ligand: FMN 200 uM)	apparent KD of MS2 coat protein [2]	apparent KD of MS2 coat protein (input ligand: none)	apparent KD of MS2 coat protein [3]	apparent KD of MS2 coat protein [4]
GUCGAGUGAGGAUAUGGUGAGUAGUGCCUGAGCGCUGCUCACCAGAAGGCACAUGAGGAUCACCCAUGUAUAAC [Mat - Exclusion 4 - Mod of JL - D14] (puzzle: Exclusion 4)	22.3 nM					
ACAUGUGUUGUAGGAUAUAGGAUACAUGAGGAUCACCCAUGUGGAUUCAUGUCUAUGGAAACGUCCUAGAAGGACGACAACAUG [Ex NG2 #21] (Eterna round: R96, puzzle: Exclusion NG 2)		120 nM	56 nM	90.5 nM		
CUAGCGAUUGUAGGAUAUCGGACUGUUUCAGUCUGAGAAGGACAUGAGGAUCACCCAUGUGAACCAACGUGAGUUGGACGCUAG [JL ENG1 3.82] (Eterna round: R96, puzzle: Exclusion NG 1)		51.1 nM	12.5 nM	19.4 nM		
UUCUGCACGCUGCGGUCCUACAUGAGGAUCACCCAUGUGGUCUGGUGGCGUGGGUCACCGGACUUGGCUCGUCUUGC [salish99_S_TOV1_R5_053] (Eterna round: R97, puzzle: Sensor, turn-off variant 1)		20.1 nM		21.1 nM		
UUUAACAAGCCAGAUCCUCACAUGAGGAUCACCCAUGUGCUCGUCUGAUUUUGUACUAUCAUGUGAGUGAUAGUAUU [Level Boss var2-05] (puzzle: Sensor v3, turn-off variant 1)	15.2 nM				165 nM	181 nM
CUGGUCCGAGGAUAUAUUUUGUGAAACAUGAGGAUCACCCAUGUAAUAAAAUGGAUGUAAAUAGAAGGCGGACUAG [Mat - Exclusion 5 - JL mod - D40] (puzzle: Exclusion 5)	29 nM				26.7 nM	30 nM
AUAAUGUCAGGAUAUACAUGAGGAUCACCCAUGUUAGAAAGAGAAGAAGAGAAACUAUGUAGAAGGGACAAUAA [Hair Trigger] (puzzle: Exclusion 3)	20.6 nM				43.7 nM	29.1 nM
UUAUACGCUGAGGAUAUCUUCACUGAAAAGUGAAGAGAAGGCGGUACAUGAGGAUCACCCAUGUCUAUGGGCAG [Ex-6 Malc#19] (puzzle: Exclusion 6)	388 nM				381 nM	478 nM
CCGAGCAGACGGAGAUCCAACAUGAGGAUCACCCAUGUCUCAAAAGCUUUUUGCUUGUCUUAUUCUCCUCUGUUCUC [Qureorxe] (Eterna round: R96, puzzle: Sensor v3, turn-off variant 1)		13 nM	29.6 nM	15.6 nM		
GCACUGACAGGAUAUACAUGAGGAUCACCCAUGUGACCCUUAUAGUACUCGCGUACAAGUAGAAGGGUCUGUGC [Omei Ex3 Model Bachelor's Dilema v31] (Eterna round: R97, puzzle: Exclusion 3)		382 nM		107 nM		
GCCUGCUGGCGAGGAUAUUCUGUGCGGUUCCGGCUCGUGUCUGUUACAUGAGGAUCACCCAUGUGGGAGAAGGUGUCUGUGGCC [Design 100] (Eterna round: R96, puzzle: Exclusion NG 2)		12.5 nM	10.1 nM	14.7 nM		
AUUUAAUUUAAUAAGAUCACAUGAGGAUCACCCAUGUAUAUAUAGGAUAUCAGCUCGUGUAGAGCUGAGAAGGAUAUAUACAUG [ExNG3/8-A3] (Eterna round: R96, puzzle: Exclusion NG 3)			15.4 nM			
CAUUACUACAAGCUAUGGGACAUGAGGAUCACCCAUGUUCGUCUUAUUGAUCUAGGUACGCUGACGUACCUAGAUCU [JL-sv1-2.22 Brourd mod] (puzzle: Sensor v3, turn-off variant 1)	21.6 nM				16.6 nM	15.7 nM
UAAUUGUGAGGAUAUCAGGUGUGCUAGCGUACUGGUACAUCUGAGAAGGCACAUGAGGAUCACCCAUGUUCCUU [Mat - Exclusion 4 - Mod of JL - D47] (puzzle: Exclusion 4)	13.6 nM					
AUAAUAAAGGAGGAUAUCGAUUCGGAAACGAAUCGAGAAGGUCUAACAUGAGGAUCACCCAUGUUCCUCAAAUA [Mat - Exclusion 6 - Eli Mod - D51] (puzzle: Exclusion 6)	35.6 nM				58 nM	27.9 nM
GAGGCAUGCCGAGGUCCACACAUGAGGAUCACCCAUGUAAUGACAGGCUUUUUACUCGUUUUAUCGCUAUCGCGUUC [Incebece] (puzzle: Sensor v3, turn-off variant 1)	26.4 nM				13.5 nM	12.8 nM
UCGGGAUGAGGAUAUACAUAGAAAUAGAUUCAUGUAAAACUACAUGAGGAUCACCCAUGUAGAAGGCAUUCCGU [Mat - Exclusion 2 - JL Mod - D58] (Eterna round: R97, puzzle: Exclusion 2)		110 nM		24.2 nM		

Sequence	apparent KD of MS2 coat protein [1]	apparent KD of MS2 coat protein (input ligand: FMN 200 uM)	apparent KD of MS2 coat protein [2]	apparent KD of MS2 coat protein (input ligand: none)	apparent KD of MS2 coat protein [3]	apparent KD of MS2 coat protein [4]
UUGUUCCGUGUAGGAUAUUGGCCUUCCUCGGGCCGAGAAGGACAUGAGGAUCACCCAUGUAUGCUAUUAUCGCGCGUGGCGCAC [Design 95] (Eterna round: R96, puzzle: Exclusion NG 1)		279 nM	22.4 nM	39.9 nM		
CUUAUGUGAGGAUAUGCCUGGCCGUGAGGCCAAAUUGAUAAGCAGAAGGCACAUGAGGAUCACCCAUGUGCGGG [jl-ex4-4.68 ViennaUCT mod] (Eterna round: R97, puzzle: Exclusion 4)		112 nM		241 nM		
CAGCGGUGAGGAUAUUCAAGGUGGGACAUGAGGAUCACCCAUGUACAUAGCUGUACGACCGGAGAAGGCGUGGCAU [Eternabot (L1) Solution 67] (Eterna round: R97, puzzle: Exclusion 5)		86.5 nM		76.3 nM		
UAUACUAGAUAGGAUAUACUUUAUUUUUUUUUCGUAGAAGGAUCUACAUGAGGAUCACCCAUGUUAACAGCAGU [JR_E6_Sub008] (puzzle: Exclusion 6)	55.1 nM					
CACCGUUACUGAGGAUAUGGUACAUGAGGAUCACCCAUGUAAUAAAUGAGAAUUUCGGAUGUAUUCCAGAAGGCAGAAAUCGGC [Ostricism 63 - Jieux - Exclusion NG 2] (Eterna round: R96, puzzle: Exclusion NG 2)		65.2 nM	40.5 nM	60.3 nM		
UGUAGAGUGGUAGGAUAUCCGUCUGUUUCAGUCGGAGAAGGACCACAGUCACUGGGUCCAUGUUUCAUGGAGACCUGAUCUACU [pwkr exNG1 F6.10] (Eterna round: R96, puzzle: Exclusion NG 1)		185 nM	49 nM	195 nM		
GAUCUGACAGGAUAUACAUGAGGAUCACCCAUGUGCGAGCUAGCGAAAGCUAGCUCAGGUAGAAGGGUCAGAUC [Ex3 dot plot directed] (puzzle: Exclusion 3)	11.6 nM					
AGAAGUAAAUAAGGAUAUCCAUGGGAGAGUGAAGGAGAAGGUAUAAUGUAUUCCAAUGUACCCACUAGGAGUACAAGAUGUUGA [Default title] (Eterna round: R96, puzzle: Exclusion NG 1)		47.9 nM	4.55 nM	23.1 nM		
AACGUGGCUUAGGAUAUUGCUACGCAAAAGUAACAAGAAGGAAGCACAUGAGGAUCACCCAUGUGAUUCGUUGA [Larevean] (puzzle: Exclusion 6)	12.2 nM				27.1 nM	13.3 nM
AAGUGUGCCUAGGAUAUGUUCGGCCAAGGUCAUACAGAAGGAGGCACAUGAGGAUCACCCAUGUAGUGUCCAAC [Orririvebe] (puzzle: Exclusion 6)	88.1 nM					
CUGUUUUCCGCAGGAUAUGCUCCUCCAUUACUAGCAGAAGGGCGUUGAACAUGAGGAUCACCCAUGUAUGUAAUUGCUUAUUGC [JR_ExcNG1_Sub072] (Eterna round: R96, puzzle: Exclusion NG 1)		19.2 nM	14.6 nM	19.4 nM		
UAUUAGCAAGUAAGAUCCCACAUGAGGAUCACCCAUGUGCUCGUCUUAUAAGGUACUGUGACGAGAGUCACGGUACC [Mat - Sensor, turn-off var - Eli Mod - D45] (Eterna round: R97, puzzle: Sensor, turn-off variant 1)		16.4 nM		19.1 nM		
CCUCUACAUGAGGAUCACCCAUGUGAGGAUAUCCUGCGAGGAUCAAAAGAUCCUCGUGGGAGAAGGCAUAUGAA [Omei Ex1 A1] (Eterna round: R97, puzzle: Exclusion 1)		34.3 nM		22.9 nM		
UUAAUUACGGUGCUUUAACCUCACAUGAGGAUCACCCAUGUGCAGGAUAUCAGCUCGAUUAGAGCUGAGAAGGGCACUGCACCG [ExNG3/11-A1] (Eterna round: R96, puzzle: Exclusion NG 3)		15.1 nM	9.95 nM	12.5 nM		
ACCUCACAUGAGGAUCACCCAUGUCAGGAUAUCUUUUAAACCGCGAAUCGCGGCGCUGAGAGAAGGGACAUUAA [EX1 #20] (Eterna round: R97, puzzle: Exclusion 1)		108 nM		39.4 nM		
CCAAGGGAGGAGGAUAUACCCGCCAAUUGGCUUGUAGAAGGCCUCACAUGAGGAUCACCCAUGUGGGACAAAAC [Eternabot (Original) Solution 21] (Eterna round: R97, puzzle: Exclusion 6)		22.8 nM		18.4 nM		
